Residue numbers refer to the chain shown, from its start.

One assay deals with T1, marmoset TfR1 (marmoset, UniProt U3FHF5 1-760).
T1 construct: whole, on cells; also called marmoset TFRC; marTFRC
In words: qPCR of cell-bound vector genomes, CHO cells stably expressing TfR1, 4 C, 1 h. (In general: Real-time PCR tracks product formation cycle by cycle.)

Another assay deals with T2, mouse TfR1 (mouse, UniProt Q62351 1-763).
T2 construct: whole, on cells; also called mouse TFRC; mouse Tfrc
Described as above.

For the next assay, the target named is T3, macaque TfR1 (rhesus macaque, UniProt I0FKY7 1-760).
T3 construct: whole, on cells; also called macTfR1; rhesus macaque TFRC
The description is as above.

Assay [1] addresses T4, human Transferrin Receptor (TFRC) (human, UniProt P02786 1-760).
T4 construct: whole, on cells; also called hTFRC; huTfR1
In words: binding of AAV to CHO or hCMEC cells expressing human TFRC, relative to AAV9.

In assay [2] the target is T4, human Transferrin Receptor (TFRC). In words: legend of the 2-step in vivo transduction assay (human TFRC expressed in mouse brain endothelium).

T4 sequence (P02786 whole entry): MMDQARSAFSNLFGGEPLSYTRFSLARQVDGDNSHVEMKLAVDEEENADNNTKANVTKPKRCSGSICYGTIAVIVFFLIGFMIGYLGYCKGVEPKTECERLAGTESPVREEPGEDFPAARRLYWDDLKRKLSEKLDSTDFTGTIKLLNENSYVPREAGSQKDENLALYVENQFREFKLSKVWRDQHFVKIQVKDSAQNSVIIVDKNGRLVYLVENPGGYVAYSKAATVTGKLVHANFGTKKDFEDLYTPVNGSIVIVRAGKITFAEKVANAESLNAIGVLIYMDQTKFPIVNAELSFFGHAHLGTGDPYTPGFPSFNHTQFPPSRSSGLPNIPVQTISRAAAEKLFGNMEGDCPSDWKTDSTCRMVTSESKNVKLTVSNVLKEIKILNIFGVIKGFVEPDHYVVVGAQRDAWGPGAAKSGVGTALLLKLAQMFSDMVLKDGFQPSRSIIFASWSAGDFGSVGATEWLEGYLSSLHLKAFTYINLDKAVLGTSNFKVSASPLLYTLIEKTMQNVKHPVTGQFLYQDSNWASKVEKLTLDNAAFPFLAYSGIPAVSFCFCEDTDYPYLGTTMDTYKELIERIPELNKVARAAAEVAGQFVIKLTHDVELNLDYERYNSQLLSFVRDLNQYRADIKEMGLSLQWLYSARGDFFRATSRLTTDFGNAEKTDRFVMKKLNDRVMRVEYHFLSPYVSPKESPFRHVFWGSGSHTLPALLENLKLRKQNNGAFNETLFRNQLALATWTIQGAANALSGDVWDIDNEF
T2 sequence (Q62351 whole entry): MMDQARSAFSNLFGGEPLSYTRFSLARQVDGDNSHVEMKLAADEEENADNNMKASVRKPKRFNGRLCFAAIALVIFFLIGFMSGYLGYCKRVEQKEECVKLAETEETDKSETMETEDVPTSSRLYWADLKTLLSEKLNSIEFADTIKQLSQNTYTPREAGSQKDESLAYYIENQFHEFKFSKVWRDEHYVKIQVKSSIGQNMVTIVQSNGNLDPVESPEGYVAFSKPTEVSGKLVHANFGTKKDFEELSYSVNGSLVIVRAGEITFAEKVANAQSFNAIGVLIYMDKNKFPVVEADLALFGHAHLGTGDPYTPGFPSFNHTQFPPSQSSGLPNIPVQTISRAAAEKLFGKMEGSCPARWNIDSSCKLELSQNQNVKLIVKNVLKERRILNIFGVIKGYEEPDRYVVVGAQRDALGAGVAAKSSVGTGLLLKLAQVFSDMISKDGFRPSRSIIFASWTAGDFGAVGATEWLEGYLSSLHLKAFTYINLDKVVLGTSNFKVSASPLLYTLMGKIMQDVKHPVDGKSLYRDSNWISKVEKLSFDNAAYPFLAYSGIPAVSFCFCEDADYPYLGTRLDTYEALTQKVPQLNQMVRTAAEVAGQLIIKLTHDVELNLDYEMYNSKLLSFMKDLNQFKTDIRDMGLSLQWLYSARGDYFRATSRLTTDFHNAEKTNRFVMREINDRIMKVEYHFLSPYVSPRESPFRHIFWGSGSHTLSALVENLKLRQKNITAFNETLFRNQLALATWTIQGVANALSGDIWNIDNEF

B1: AAV-BI98 (other)
chain: MAADGYLPDWLEDNLSEGIREWWALKPGAPQPKANQQHQDNARGLVLPGYKYLGPGNGLDKGEPVNAADAAALEHDKAYDQQLKAGDNPYLKYNHADAEFQERLKEDTSFGGNLGRAVFQAKKRLLEPLGLVEEAAKTAPGKKRPVEQSPQEPDSSAGIGKSGAQPAKKRLNFGQTGDTESVPDPQPIGEPPAAPSGVGSLTMASGGGAPVADNNEGADGVGSSSGNWHCDSQWLGDRVITTSTRTWALPTYNNHLYKQISNSTSGGSSNDNAYFGYSTPWGYFDFNRFHCHFSPRDWQRLINNNWGFRPKRLNFKLFNIQVKEVTDNNGVKTIANNLTSTVQVFTDSDYQLPYVLGSAHEGCLPPFPADVFMIPQYGYLTLNDGSQAVGRSSFYCLEYFPSQMLRTGNNFQFSYEFENVPFHSSYAHSQSLDRLMNPLIDQYLYYLSRTINGSGQNQQTLKFSVAGPSNMAVQGRNYIPGPSYRQQRVSTTVTQNNNSEFAWPGASSWALNGRNSLMNPGPAMASHKEGEDRFFPLSGSLIFGKQGTGRDNVDADKVMITNEEEIKTTNPVATESYGQVATNHQSAQYSRLNMNAQAQTGWVQNQGILPGMVWQDRDVYLQGPIWAKIPHTDGNFHPSPLMGGFGMKHPPPQILIKNTPVPADPPTAFNKDKLNSFITQYSTGQVSVEIEWELQKENSKRWNPEIQYTSNYYKSNNVEFAVNTEGVYSEPRPIGTRYLTRNL
notes: Engineered AAV capsid tested as assembled virus particles; entry is full VP1; also called AAV-B198
Regarding B1, the binding result was “no binding (tested: 3,000 vg/cell)” with marmoset TfR1, “no binding (tested: 3,000 vg/cell)” with mouse TfR1, “no binding (tested: 3,000 vg/cell)” with macaque TfR1 and “binds” in assay [1].

B2: AAV-BI102 (other)
chain: B1 chain with Y589L, S590H, R591A, N593S, M594H
notes: Engineered AAV capsid tested as assembled virus particles; entry is full VP1
For the molecule B2, in assay [1], the binding result is recorded as “binds”.

B3: AAV-BI99 (other)
chain: B1 chain with M594K, N595D
notes: as for B2
As to B3, the binding result with marmoset TfR1 was “no binding (tested: 3,000 vg/cell)”; with mouse TfR1 it was “no binding (tested: 3,000 vg/cell)”; in the assay with macaque TfR1, “no binding (tested: 3,000 vg/cell)”; in assay [1], “binds”.

B4: AAV-BI100 (other)
chain: B1 chain with Y589V, S590H, N593Q, M594D, N595K
notes: as for B2
In the case of B4, the binding result in assay [1] was “binds”.

B5: AAV-BI19 (other)
chain: B1 chain with L592I, N593G, M594P
notes: Engineered AAV capsid, tested as assembled genome-packaging virus particles; VP2 and VP3 come from the same cap gene
On to B5, for which the binding result in assay [2] was “binds”; with marmoset TfR1, “no binding (tested: 3,000 vg/cell)”; in the assay with mouse TfR1, “no binding (tested: 3,000 vg/cell)”; with macaque TfR1, “no binding (tested: 3,000 vg/cell)”.

B6: AAV-BI101 (other)
chain: B1 chain with S590H, N593S, M594N
notes: as for B2
In the case of B6, the binding result with marmoset TfR1 is given as “no binding (tested: 3,000 vg/cell)”; with mouse TfR1 it was “no binding (tested: 3,000 vg/cell)”; with macaque TfR1, “no binding (tested: 3,000 vg/cell)”; in assay [1] it was “binds”.

(Values after patent US20250228976A1 (BROAD INSTITUTE, published 2025).)
